# Measured values published in publication PMC10313165.
# How the values were obtained:
# [1] = molecular target: rat CaMKIIα holoenzyme with pT286 (rat (Rattus norvegicus)) (UniProt P11275); test: high-speed atomic force microscopy; 50 nM CaMKII and 800 nM CaM premixed in buffer B with 1 mM CaCl2 and 1 mM ATP, 30 °C, 5 min; imaged in buffer A with 1 mM CaCl2 and 1 mM ATP on pillar[5]arene-modified mica, 24-26 °C
# [2] = molecular target: rat CaMKIIα holoenzyme (wild type, not phosphorylated) (rat (Rattus norvegicus)) (UniProt P11275); test: high-speed atomic force microscopy; 50 nM CaMKII and 800 nM CaM premixed in buffer B (50 mM tris-HCl pH 7.4, 150 mM KCl, 10 mM MgCl2) with 1 mM CaCl2, 30 °C, 5 min, no ATP; imaged in buffer A with 1 mM CaCl2 on pillar[5]arene-modified mica, 24-26 °C
substance,measurement,setting,value
"rat calmodulin, 6xHis-tagged (Ca^2+-bound in the assays) (from UniProt P0DP29 1-149) (natural protein; other documents disagree on this pair)",fraction of Ca^2+/CaM bound longer than 60 s,[1],77.3%
same,fraction of Ca^2+/CaM bound longer than 60 s,[2],41.1%
